{
  "source": "paper PMC5881884",
  "about": "(Biochimica et biophysica acta, 2017)",
  "proteins": {"B1": {"name": "14-3-3ζ pseudo-WT (C25A, C189A) (natural protein)", "chain": "MDKNELVQKAKLAEQAERYDDMAAAMKSVTEQGAELSNEERNLLSVAYKNVVGARRSSWRVVSSIEQKTEGAEKKQQMAREYREKIETELRDICNDVLSLLEKFLIPNASQAESKVFYLKMKGDYYRYLAEVAAGDDKKGIVDQSQQAYQEAFEISKKEMQPTHPIRLGLALNFSVFYYEILNSPEKAASLAKTAFDEAIAELDTLSEESYKDSTLIMQLLRDNLTLWTSDTQGDEAEAGEGGEN"}},
  "target": "the molecule itself",
  "test": "native gel or EMSA",
  "data": [
    {"protein": "B1", "values": [
      {"measurement": "stoichiometry N", "value": 2}
    ]}
  ]
}
